Activity data for 4 molecules are collected here from US20240301385, “DNA MODIFYING ENZYMES AND ACTIVE FRAGMENTS AND VARIANTS THEREOF AND METHODS OF USE” (LIFEEDIT THERAPEUTICS, INC., published 2024).

In one series the target is T1, APG30125-L32-nAPG07433.1 (synthetic).
T1 chain: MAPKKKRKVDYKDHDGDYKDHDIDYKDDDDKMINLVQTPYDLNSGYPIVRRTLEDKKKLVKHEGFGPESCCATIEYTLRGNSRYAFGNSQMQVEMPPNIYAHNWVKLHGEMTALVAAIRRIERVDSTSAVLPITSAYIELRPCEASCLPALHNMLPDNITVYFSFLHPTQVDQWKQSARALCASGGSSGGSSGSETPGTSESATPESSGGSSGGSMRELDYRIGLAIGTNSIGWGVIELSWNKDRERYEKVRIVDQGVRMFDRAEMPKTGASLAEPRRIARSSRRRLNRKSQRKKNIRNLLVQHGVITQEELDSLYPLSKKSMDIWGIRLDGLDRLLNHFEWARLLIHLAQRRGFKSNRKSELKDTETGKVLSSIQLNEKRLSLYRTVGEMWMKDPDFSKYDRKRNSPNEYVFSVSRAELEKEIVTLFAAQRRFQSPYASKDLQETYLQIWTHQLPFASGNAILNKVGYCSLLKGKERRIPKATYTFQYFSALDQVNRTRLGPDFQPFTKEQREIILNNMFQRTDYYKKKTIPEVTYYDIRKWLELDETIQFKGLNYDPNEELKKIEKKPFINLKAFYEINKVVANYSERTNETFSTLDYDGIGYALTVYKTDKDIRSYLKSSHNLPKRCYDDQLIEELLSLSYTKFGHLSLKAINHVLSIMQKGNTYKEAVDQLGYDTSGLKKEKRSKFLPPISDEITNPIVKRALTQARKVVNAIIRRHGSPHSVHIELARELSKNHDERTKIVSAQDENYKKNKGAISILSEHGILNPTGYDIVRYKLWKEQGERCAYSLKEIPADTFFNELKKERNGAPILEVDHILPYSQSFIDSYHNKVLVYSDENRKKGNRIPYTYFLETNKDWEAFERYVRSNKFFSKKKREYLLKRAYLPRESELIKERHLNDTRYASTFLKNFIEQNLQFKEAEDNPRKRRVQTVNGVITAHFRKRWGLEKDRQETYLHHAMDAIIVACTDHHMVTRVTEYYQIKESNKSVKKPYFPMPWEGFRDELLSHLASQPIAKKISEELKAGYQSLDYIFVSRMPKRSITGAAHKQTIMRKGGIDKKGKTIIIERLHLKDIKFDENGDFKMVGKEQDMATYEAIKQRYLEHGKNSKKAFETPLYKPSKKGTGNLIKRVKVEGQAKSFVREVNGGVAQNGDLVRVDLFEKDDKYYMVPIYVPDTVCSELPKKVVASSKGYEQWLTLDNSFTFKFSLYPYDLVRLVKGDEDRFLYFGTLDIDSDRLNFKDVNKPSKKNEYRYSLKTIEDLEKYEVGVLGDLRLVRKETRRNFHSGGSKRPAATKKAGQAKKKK
The series can be described thus: cell_activity; HEK293FT; PAM SEQ 152. The note with it: tags: SV40 NLS, 3xFLAG N-term; nucleoplasmin NLS C-term. The gist of the method:
(§1)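 Editing read out by next-generation sequencing (MiSeq 2×250) of PCR amplicons spanning the target site, analysed for INDELs or % cytosine conversion per position (position 1 nearest PAM).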

The target in a further series is T2, APG30129-L32-nAPG07433.1 (synthetic).
T2 chain: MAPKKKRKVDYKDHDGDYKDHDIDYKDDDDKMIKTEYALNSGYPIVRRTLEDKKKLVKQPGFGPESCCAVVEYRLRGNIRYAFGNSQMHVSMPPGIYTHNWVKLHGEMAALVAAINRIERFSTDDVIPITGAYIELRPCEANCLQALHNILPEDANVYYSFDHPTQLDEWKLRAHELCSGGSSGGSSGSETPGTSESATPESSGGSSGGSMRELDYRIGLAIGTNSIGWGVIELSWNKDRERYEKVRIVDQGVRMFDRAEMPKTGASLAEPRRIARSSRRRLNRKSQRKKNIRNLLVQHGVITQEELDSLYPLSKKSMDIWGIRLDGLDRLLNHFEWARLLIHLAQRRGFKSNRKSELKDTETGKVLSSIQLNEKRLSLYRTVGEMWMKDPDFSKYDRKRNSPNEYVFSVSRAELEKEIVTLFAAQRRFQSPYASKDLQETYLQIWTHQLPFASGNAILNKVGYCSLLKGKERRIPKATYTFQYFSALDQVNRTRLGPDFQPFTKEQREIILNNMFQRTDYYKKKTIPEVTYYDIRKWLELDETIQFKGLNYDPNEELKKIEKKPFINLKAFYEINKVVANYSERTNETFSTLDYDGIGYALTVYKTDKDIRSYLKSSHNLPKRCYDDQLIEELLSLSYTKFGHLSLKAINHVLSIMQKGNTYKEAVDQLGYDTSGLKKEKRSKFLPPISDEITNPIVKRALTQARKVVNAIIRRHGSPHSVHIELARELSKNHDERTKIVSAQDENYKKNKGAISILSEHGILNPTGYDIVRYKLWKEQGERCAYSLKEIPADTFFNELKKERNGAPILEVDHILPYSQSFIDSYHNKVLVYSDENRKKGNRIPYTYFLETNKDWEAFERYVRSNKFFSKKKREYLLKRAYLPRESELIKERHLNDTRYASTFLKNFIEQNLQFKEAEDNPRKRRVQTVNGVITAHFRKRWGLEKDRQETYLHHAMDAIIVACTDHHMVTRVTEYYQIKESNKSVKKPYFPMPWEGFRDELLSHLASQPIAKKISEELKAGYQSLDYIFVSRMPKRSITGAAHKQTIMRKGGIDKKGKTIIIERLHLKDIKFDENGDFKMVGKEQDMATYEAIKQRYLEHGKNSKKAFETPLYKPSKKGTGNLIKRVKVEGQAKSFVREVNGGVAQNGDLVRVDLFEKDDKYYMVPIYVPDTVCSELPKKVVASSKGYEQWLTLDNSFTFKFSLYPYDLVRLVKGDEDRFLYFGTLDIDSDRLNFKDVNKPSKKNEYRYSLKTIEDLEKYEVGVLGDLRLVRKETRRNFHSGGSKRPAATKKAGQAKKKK
The series can be described thus: cell_activity; HEK293FT; PAM SEQ 152. As to conditions: tags: SV40 NLS, 3xFLAG N-term; nucleoplasmin NLS C-term. In a few lines: as §1

B1: SGN000929 sgRNA ; SGN000929 target (ssRNA ; dsDNA)
RNA: AUCUGGAGGGAACUUACAGCAUAUGGUCAUAGUUCCAUGAAAGCCAAAAGUGGCUUUGAUGUUUCUAUGAUAAGGGUUUCGGCCCGUGGCGUCGGGGAUCGCCUGCCCAUUCCGAUGGGCUUCUCCCCAUUUAUU
DNA 1: ATCTGGAGGGAACTTACAGCATATG
DNA 2: CATATGCTGTAAGTTCCCTCCAGAT
With B1, the activity with APG30125-L32-nAPG07433.1 came to 7.39 % mutated reads.

B2: SGN000169 sgRNA ; SGN000169 target (ssRNA ; dsDNA)
RNA: CACAUCUCGAGCAAGACGUUGUCAUAGUUCCAUUAAAGCCAAAAGUGGCUUUGAUGUUUCUAUGAUAAGGGUUUCGACCCGUGGCGUCGGGGAUCGCCUGCCCAUUGAAAUGGGCUUCUCCCCAUUUAUU
DNA 1: CACATCTCGAGCAAGACGTT
DNA 2: AACGTCTTGCTCGAGATGTG
In the series with APG30125-L32-nAPG07433.1, B2 returned an activity of 6.89 % mutated reads.

B3: SGN000194 sgRNA ; SGN000194 target (ssRNA ; dsDNA)
RNA: GCCGCACAGCAUUCAGGUCGGUCAUAGUUCCAUUAAAGCCAAAAGUGGCUUUGAUGUUUCUAUGAUAAGGGUUUCGACCCGUGGCGUCGGGGAUCGCCUGCCCAUUGAAAUGGGCUUCUCCCCAUUUAUU
DNA 1: GCCGCACAGCATTCAGGTCG
DNA 2: CGACCTGAATGCTGTGCGGC
As to B3, the activity with APG30129-L32-nAPG07433.1 was found to be 5.92 % mutated reads.

B4: SGN000930 sgRNA ; SGN000930 target (ssRNA ; dsDNA)
RNA: GAACAACUCAAAUGGAAAUGAAUAUGUCAUAGUUCCAUGAAAGCCAAAAGUGGCUUUGAUGUUUCUAUGAUAAGGGUUUCGGCCCGUGGCGUCGGGGAUCGCCUGCCCAUUCCGAUGGGCUUCUCCCCAUUUAUU
DNA 1: GAACAACTCAAATGGAAATGAATAT
DNA 2: ATATTCATTTCCATTTGAGTTGTTC
Turning to B4, the activity with APG30129-L32-nAPG07433.1 turned out to be 3.47 % mutated reads.
